According to publication PMC12827253, “GADD45β inhibits RIPK3-mediated NF-κB activation by interfering with NEMO-RIPK1-RIPK3 interactions” (Cell Death Discovery, 2025):

Biological target: T1, human recombinant RIPK3 (human, UniProt Q9Y572 1-518)
T1 construct: RIPK3, human, bought recombinant protein; also called rhRIPK3; source: bought: Mybiosource cod; MBS1442585
Assay: BLI; rhRIPK3 immobilised on AR2G sensor (10 μg/mL in 10 mM NaAc pH 4.5); rhGADD45β as analyte, 3.1–100 nM; 25 mM Tris pH 7.5, 100 mM NaCl, 0.02% Tween 20, 0.1% BSA; 25 °C; 1:1 Langmuir model; apparent
Settings: both partners purified

T1 sequence (Q9Y572 whole entry): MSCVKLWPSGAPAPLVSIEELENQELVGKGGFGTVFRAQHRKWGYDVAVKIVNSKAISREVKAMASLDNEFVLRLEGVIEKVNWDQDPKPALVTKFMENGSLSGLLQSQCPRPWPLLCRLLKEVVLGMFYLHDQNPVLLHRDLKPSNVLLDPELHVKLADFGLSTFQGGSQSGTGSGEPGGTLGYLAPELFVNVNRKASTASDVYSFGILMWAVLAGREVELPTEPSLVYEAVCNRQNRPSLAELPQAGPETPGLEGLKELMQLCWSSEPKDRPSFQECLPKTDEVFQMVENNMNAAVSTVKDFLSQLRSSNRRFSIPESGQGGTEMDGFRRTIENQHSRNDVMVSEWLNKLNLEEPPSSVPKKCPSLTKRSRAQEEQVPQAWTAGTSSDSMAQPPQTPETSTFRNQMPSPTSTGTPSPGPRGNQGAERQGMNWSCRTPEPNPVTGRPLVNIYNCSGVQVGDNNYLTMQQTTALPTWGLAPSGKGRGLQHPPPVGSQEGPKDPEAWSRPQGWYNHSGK

B1: recombinant human GADD45β (natural protein, UniProt O75293 1-160, looked up)
chain: MTLEELVACDNAAQKMQTVTAAVEELLVAAQRQDRLTVGVYESAKLMNVDPDSVVLCLLAIDEEEEDDIALQIHFTLIQSFCCDNDINIVRVSGMQRLAQLLGEPAETQGTTEARDLHCLLVTNPHTDAWKSHGLVEVASYCEESRGNNQWVPYISLQER
notes: GADD45β, human, recombinant; also called rhGADD45β; Growth Arrest and DNA Damage-inducible beta
  Kd: 1.73 nM
